From patent publication US20230167426A1 (UNIVERSITY OF MASSACHUSETTS, published 2023)

T1: 6×His-tagged NmeCas9 (Neisseria meningitidis Cas9) (Neisseria meningitidis, UniProt C9X1G5 1-1082)
T1 construct: also called N. meningitidis Cas9; 6×His-NmeCas9; not shown: N-terminal 6xHis-TEV tag of vector pMCSG7
T1 sequence: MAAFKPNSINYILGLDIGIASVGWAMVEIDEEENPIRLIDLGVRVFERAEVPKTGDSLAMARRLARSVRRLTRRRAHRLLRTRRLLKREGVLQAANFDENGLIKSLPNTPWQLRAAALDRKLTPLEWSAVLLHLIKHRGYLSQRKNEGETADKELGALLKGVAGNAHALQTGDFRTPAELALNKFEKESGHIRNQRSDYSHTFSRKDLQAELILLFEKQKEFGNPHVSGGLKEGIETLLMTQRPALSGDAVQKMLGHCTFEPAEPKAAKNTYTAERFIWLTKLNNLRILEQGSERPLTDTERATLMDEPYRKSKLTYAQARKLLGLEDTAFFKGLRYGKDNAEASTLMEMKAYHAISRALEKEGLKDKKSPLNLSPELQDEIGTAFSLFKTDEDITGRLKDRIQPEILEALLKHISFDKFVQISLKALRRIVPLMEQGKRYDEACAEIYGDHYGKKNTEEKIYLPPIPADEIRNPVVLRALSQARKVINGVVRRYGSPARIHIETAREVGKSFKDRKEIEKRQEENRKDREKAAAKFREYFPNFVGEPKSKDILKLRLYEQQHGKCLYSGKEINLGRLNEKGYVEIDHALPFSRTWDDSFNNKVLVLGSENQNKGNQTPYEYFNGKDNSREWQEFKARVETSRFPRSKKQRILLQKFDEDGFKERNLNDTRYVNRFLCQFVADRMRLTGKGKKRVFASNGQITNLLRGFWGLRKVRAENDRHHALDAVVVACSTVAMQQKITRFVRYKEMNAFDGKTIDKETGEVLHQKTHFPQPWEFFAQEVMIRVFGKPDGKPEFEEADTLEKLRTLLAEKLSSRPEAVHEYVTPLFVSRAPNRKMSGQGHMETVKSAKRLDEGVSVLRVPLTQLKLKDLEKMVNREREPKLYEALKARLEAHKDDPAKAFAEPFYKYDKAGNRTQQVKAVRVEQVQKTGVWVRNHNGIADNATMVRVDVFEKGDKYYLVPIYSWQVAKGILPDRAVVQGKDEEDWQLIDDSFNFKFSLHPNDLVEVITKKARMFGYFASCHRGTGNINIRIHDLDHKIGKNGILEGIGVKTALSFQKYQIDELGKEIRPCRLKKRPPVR

T2: 6×His-MBP-tagged AnaCas9 (Cas9 from Actinomyces naeslundii) (Actinomyces naeslundii, UniProt J3F2B0 1-1101)
T2 construct: not shown: 6×His-MBP tag
T2 sequence: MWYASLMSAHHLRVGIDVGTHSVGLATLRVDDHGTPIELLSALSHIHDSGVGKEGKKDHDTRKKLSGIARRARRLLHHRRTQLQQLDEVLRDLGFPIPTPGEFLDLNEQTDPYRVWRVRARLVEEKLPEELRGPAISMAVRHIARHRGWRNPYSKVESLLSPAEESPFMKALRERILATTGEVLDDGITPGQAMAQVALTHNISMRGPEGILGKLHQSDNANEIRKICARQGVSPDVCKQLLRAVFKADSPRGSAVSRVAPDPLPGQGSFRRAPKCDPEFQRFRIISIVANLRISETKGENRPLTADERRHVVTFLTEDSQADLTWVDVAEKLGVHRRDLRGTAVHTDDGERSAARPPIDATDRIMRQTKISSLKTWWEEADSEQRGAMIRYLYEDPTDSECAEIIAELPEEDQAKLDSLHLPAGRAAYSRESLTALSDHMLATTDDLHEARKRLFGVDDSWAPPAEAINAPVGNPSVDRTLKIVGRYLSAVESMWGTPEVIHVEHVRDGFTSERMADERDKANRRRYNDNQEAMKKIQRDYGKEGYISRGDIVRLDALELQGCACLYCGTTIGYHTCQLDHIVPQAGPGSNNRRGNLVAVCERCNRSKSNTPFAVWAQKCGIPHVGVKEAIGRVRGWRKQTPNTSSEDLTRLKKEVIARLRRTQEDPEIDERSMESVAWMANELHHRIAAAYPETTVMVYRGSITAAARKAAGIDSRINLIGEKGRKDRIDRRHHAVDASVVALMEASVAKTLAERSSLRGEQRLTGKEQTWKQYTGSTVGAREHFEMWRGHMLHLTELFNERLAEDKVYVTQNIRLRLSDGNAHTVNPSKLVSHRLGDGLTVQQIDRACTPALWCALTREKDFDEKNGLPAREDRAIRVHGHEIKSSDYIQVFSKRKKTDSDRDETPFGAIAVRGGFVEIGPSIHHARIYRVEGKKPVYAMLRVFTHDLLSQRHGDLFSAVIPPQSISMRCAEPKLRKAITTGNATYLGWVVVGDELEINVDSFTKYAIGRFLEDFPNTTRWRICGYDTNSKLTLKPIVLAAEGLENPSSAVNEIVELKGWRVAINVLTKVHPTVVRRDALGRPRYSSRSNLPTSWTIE

B1: AcrE2 (type I-E anti-CRISPR from Pseudomonas phage JBD88a) (other)
chain: MANTYLIDPRKNNDNSGERFTVDAVDITAAAKSAAQQILGEEFEGLVYRETGESNGSGMFQAYHHLHGTNRTETTVGYPFHVMEL
notes: also called Acr88a-32; Acr88-32
B2: AcrIIC1Nme (Neisseria meningitidis Acr #1) (other)
chain: MANKTYKIGKNAGYDGCGLCLAAISENEAIKVKYLRDICPDYDGDDKAEDWLRWGTDSRVKAAALEMEQYAYTSVGMASCWEFVEL
notes: also called Acr1Nm
B3: FLAG-AcrIIC3Nme (AcrIIC3Nme with an N-terminal FLAG tag) (other)
chain: DYKDDDDKMAFKRAIIFTSFNGFEKVSRTEKRRLAKIINARVSIIDEYLRAKDTNASLDGQYRAFLFNDESPAMTEFLAKLKAFAESCTGISIDAWEIEESEYVRLPVERRDFLAAANGKEIFKI
notes: also called 6xHis-TEV-FLAG-AcrIIC3Nme (before TEV cleavage)

Assays:
[1] = biological target: T1, 6×His-tagged NmeCas9 (Neisseria …); assay: nickel affinity pulldown with 6×His-NmeCas9:sgRNA, SDS-PAGE/Coomassie
[2] = biological target: T1, 6×His-tagged NmeCas9 (Neisseria …); assay: cell-based or functional assay
[3] = biological target: T2, 6×His-MBP-tagged AnaCas9 (Cas9 from …); assay: nickel affinity pulldown with tagged AnaCas9, SDS-PAGE/Coomassie

Binder	binding result [1]	inhibition of in vitro DNA cleavage by NmeCas9, anti-CRISPR at 1:1 molar ratio [2]	binding result [3]
B1	no binding		
B2		~50%	no binding
B3		~50%	no binding
